Experimental data published in patent publication US20260274928A1.

Molecular target: 9-strain panel of authentic SARS-CoV-2 viral isolates
Assay: cell-based or functional assay

B1: S2V29-v37.2 (antibody, V domains shown)
VH: EVQLVESGGSVVQPGRALRLSCAASGITFSSFGMYWVRQAPGKGLEWLGYIAYDGSDTYYADSVKGRFTISRDNSKNTLYLQMNSLRIEDTAVYYCAKDYYPLLSYYYGLDVWGQGTTVTVSS
VL: QSVLTQPRSVSGSPGQSVTISCTGTSSDVGAYNYVSWYQQHPGKAPKFMIYDVDQRPSGVPDRFSGSKSGNTASLIISGLQAEDEADYYCSSYAGSYIWVFGGGTQLTVL
Q: B1 was tested. Which IC50, authentic virus neutralization did it give?
A: The IC50, authentic virus neutralization was 1.3 to 9.6 ng/mL.

Q: And the median IC50, authentic virus neutralization?
A: The median IC50, authentic virus neutralization was 2 ng/mL.
